Test results published in patent publication US20240116985A1 (published 2024).
Starred links: 1 amine or outer side, 2 acyl side, 3 side chain; linkers in the order of their positions; H or OH if unused. Positions of bridges follow the written chain, without caps; N, C: chain ends. Non-standard residues stand in square brackets, D forms with d. Primed or numbered codes have the meaning given here. PyrS2″ = (S)-3-amino-1-((pent-4-en-1-yloxy)carbonyl)pyrrolidine-3-carboxylic acid (stapling residue), C=CCCCOC(=O)N1CC[C@@](N[*:1])(C(=O)[*:2])C1; B5(5) = 2,2-bis(4-pentenyl)glycine, 2-amino-2-(pent-4-en-1-yl)hept-6-enoic acid (stitching residue), C=CCCCC(CCCC=C)(N[*:1])C(=O)[*:2]; B5(20) = 2-amino-2-(pent-4-en-1-yl)hept-6-enoic acid = bis(4-pentenyl)glycine, stitching residue, C=CCCCC(CCCC=C)(N[*:1])C(=O)[*:2]; B5(21) = 2-amino-2-(pent-4-en-1-yl)hept-6-enoic acid, bis(4-pentenyl)glycine (stitching residue), C=CCCCC(CCCC=C)(N[*:1])C(=O)[*:2]; B5(6) = 2-amino-2-(pent-4-en-1-yl)hept-6-enoic acid (bis(4-pentenyl)glycine), stitching residue, C=CCCCC(CCCC=C)(N[*:1])C(=O)[*:2]; TfeGA = (S)-2-amino-3-((carboxymethyl)(2,2,2-trifluoroethyl)amino)propanoic acid, O=C([C@H](CN(CC(=O)[*:3])CC(F)(F)F)N[*:1])[*:2]; B5(12) = 2-amino-2-(pent-4-en-1-yl)hept-6-enoic acid (two olefin side chains), C=CCCCC(CCCC=C)(N[*:1])C(=O)[*:2]; (NHiPr)AsnR = N4-isopropyl-L-asparagine, CC(C)NC(=O)C[C@H](N[*:1])C(=O)[*:2]; (NHEt)AsnR = N4-ethyl-L-asparagine, CCNC(=O)C[C@H](N[*:1])C(=O)[*:2]; Phe(3-COOH) = N[C@@H](Cc1cccc(C(=O)O)c1)C(=O)O; Phe(2-CONH2) = NC(=O)c1ccccc1C[C@H](N)C(=O)O; Phe(2-OMe) = COc1ccccc1C[C@H](N)C(=O)O; Bta = N[C@@H](Cc1csc2ccccc12)C(=O)O; Lys(iPr) = CC(C)NCCCC[C@H](N)C(=O)O; αAllylPro = C=CC[C@@]1(C(=O)O)CCCN1; tBuAla = CC(C)(C)C[C@H](N)C(=O)O; 3Thi = N[C@@H](Cc1ccsc1)C(=O)O; S8 = C=CCCCCCC[C@](C)(N)C(=O)O; PyrS2(4) = not defined here; Nle = CCCC[C@H](N)C(=O)O; Aib = CC(C)(N)C(=O)O

T1: B-cat-Halo (UniProt P35222 1-781)
T1 sequence (looked up): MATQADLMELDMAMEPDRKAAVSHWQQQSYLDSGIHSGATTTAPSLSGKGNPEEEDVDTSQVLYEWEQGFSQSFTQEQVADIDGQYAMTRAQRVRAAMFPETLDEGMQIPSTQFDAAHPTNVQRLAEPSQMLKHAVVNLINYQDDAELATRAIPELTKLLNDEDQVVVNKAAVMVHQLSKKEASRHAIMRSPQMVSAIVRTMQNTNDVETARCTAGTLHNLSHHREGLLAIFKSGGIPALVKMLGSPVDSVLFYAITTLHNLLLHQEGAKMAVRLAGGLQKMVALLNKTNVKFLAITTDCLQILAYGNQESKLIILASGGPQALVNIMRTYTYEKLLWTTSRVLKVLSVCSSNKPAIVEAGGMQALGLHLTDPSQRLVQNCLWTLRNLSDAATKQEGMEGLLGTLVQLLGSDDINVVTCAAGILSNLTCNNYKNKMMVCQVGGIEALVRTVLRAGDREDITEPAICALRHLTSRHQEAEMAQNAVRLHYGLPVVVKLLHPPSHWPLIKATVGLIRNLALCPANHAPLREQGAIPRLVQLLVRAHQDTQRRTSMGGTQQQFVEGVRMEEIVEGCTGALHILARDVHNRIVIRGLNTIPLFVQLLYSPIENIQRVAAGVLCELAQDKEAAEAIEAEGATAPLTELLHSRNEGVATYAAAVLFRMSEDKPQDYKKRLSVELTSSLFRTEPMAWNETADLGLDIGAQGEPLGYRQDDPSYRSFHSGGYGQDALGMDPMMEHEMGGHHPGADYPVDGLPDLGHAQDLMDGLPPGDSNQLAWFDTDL

T2: B-cat-Halo (beta-catenin HaloTag construct transfected into HEK293 cells) (UniProt P35222 1-781)
T2 sequence (looked up): T1 sequence (looked up)

T3: full-length beta-Catenin (Uniprot ID P35222) (Homo sapiens (Human), UniProt P35222 1-781)
T3 construct: also called bCat; B-Catenin
T3 sequence: T1 sequence (looked up)

B1: I-1913 (peptide)
peptide: Ac-[αAllylPro]D[tBuAla][B5(12)]D[Phe(3-COOH)][Nle]AFL[PyrS2(4)][3Thi][Bta]F-NH2
modifications: staple 1-4, 4-11; not fully specified; printed as Ac-PL3-Asp-Npg-B5-Asp-3COOHF-nLeu-Ala-Phe-Leu-PyrS2-3Thi-BztA-Phe-NH2; reading uncertain
B2: I-1914 (peptide)
peptide: Ac-[αAllylPro]D[tBuAla][B5(12)]D[Phe(3-COOH)][Aib]AFL[PyrS2(4)][3Thi][Bta]F-NH2
modifications: staple 1-4, 4-11; not fully specified; printed as Ac-PL3-Asp-Npg-B5-Asp-3COOHF-Aib-Ala-Phe-Leu-PyrS2-3Thi-BztA-Phe-NH2; reading uncertain
B3: I-536 (peptide)
peptide: Ac-[αAllylPro]DA[B5(21)][(NHEt)AsnR]DAAFV[S8]F[Bta]Q-NH2
modifications: staple 1-4, 4-11
notes: Stapled peptide composition; also called Ac-PL3-Asp-Ala-B5-[NHEt]AsnR-Asp-Ala-Ala-Phe-Val-S8-Phe-BztA-Gln-NH2
B4: I-512 (peptide)
peptide: Ac-[αAllylPro]DI[B5(20)]DEAAFN[S8][Phe(2-OMe)][Bta]H-NH2
modifications: staple 1-4, 4-11
notes: Stapled peptide composition; also called Ac-PL3-Asp-Ile-B5-Asp-Glu-Ala-Ala-Phe-Asn-S8-2OMeF-BztA-His-NH2
B5: I-514 (peptide)
peptide: Ac-[αAllylPro]DI[B5(20)]DEAAFN[S8][Phe(2-CONH2)][Bta]H-NH2
modifications: staple 1-4, 4-11
notes: Stapled peptide composition; also called Ac-PL3-Asp-Ile-B5-Asp-Glu-Ala-Ala-Phe-Asn-S8-2CBMF-BztA-His-NH2
B6: I-513 (peptide)
peptide: Ac-[αAllylPro]DA[B5(20)]DEAAFN[S8][Phe(2-CONH2)][Bta]H-NH2
modifications: staple 1-4, 4-11
notes: Stapled peptide composition; also called Ac-PL3-Asp-Ala-B5-Asp-Glu-Ala-Ala-Phe-Asn-S8-2CBMF-BztA-His-NH2
B7: I-535 (peptide)
peptide: Ac-[αAllylPro]DA[B5(21)][(NHiPr)AsnR]DAAFV[S8]F[Bta]Q-NH2
modifications: staple 1-4, 4-11
notes: Stapled peptide composition; also called Ac-PL3-Asp-Ala-B5-[NHiPr]AsnR-Asp-Ala-Ala-Phe-Val-S8-Phe-BztA-Gln-NH2
B8: I-506 (peptide)
peptide: Ac-[αAllylPro]DL[B5(6)]DEAAFQ[S8]F[Bta]H-NH2
modifications: staple 1-4, 4-11
notes: Stapled peptide composition; also called Ac-PL3-Asp-Leu-B5-Asp-Glu-Ala-Ala-Phe-Gln-S8-Phe-BztA-His-NH2
B9: I-507 (peptide)
peptide: XDAXDEAAFQXFXT
modifications: not fully specified; N-terminal acetyl (Ac); PL3 at X1, B5 at X4 and S8 at X11 stapled (PL3-B5 and B5-S8, olefin metathesis); BztA at X13; C-terminal amide (NH2)
notes: Stapled peptide composition; also called Ac-PL3-Asp-Ala-B5-Asp-Glu-Ala-Ala-Phe-Gln-S8-Phe-BztA-Thr-NH2
B10: I-508 (peptide)
peptide: XDAXDEAAFQXFXT
modifications: not fully specified; N-terminal acetyl (Ac); PL3 at X1, B5 at X4 and S8 at X11 stapled (PL3-B5 and B5-S8, olefin metathesis); BztA at X13; C-terminal amide (NH2)
notes: as for B9
B11: I-528 (peptide)
peptide: XDIXDEAAFQXFXQ
modifications: not fully specified; N-terminal acetyl (Ac); PL3 at X1, B5 at X4 and S8 at X11 stapled (PL3-B5 and B5-S8, olefin metathesis); 2OMeF at X12; BztA at X13; C-terminal amide (NH2)
notes: Stapled peptide composition; also called Ac-PL3-Asp-Ile-B5-Asp-Glu-Ala-Ala-Phe-Gln-S8-2OMeF-BztA-Gln-NH2
B12: I-527 (peptide)
peptide: XDIXDEAAFQXFXQ
modifications: not fully specified; N-terminal acetyl (Ac); PL3 at X1, B5 at X4 and S8 at X11 stapled (PL3-B5 and B5-S8, olefin metathesis); 2OMeF at X12; BztA at X13; C-terminal amide (NH2)
notes: as for B11

The binders below were run against T1, B-cat-Halo (assay: cell-based or functional assay).

Binder	NanoBRET Abs IC50
Ac-[αAllylPro]D[tBuAla][B5(5)]D[TfeGA]AAFL[PyrS2″][3Thi][Bta]L-NH2 (staple 1-4, 4-11) [I-1748]	20200 nM
Ac-[αAllylPro]D[tBuAla][B5(5)]D[TfeGA][Lys(iPr)]AFT[PyrS2″][3Thi][Bta]V-NH2 (staple 1-4, 4-11; also: -CH=CH- in each staple reduced to -CH2-CH2-) [I-1770]	> 20000 nM
Ac-[αAllylPro]D[tBuAla][B5(5)]D[TfeGA]AAFL[PyrS2″][3Thi][Bta]F-NH2 (staple 1-4, 4-11) [I-1750]	23700 nM
Ac-[αAllylPro]D[tBuAla][B5(5)]D[TfeGA][Lys(iPr)]AFT[PyrS2″][3Thi][Bta]V-NH2 (staple 1-4, 4-11) [I-1764]	> 20000 nM

Each binder was assayed against T2, B-cat-Halo (beta-catenin HaloTag …) (assay: cell-based or functional assay).

Binder	NanoBRET Abs IC50
B1	17500 nM
B2	6400 nM

The binders below were run against T3, full-length beta-Catenin (Uniprot ID …) (assay: fluorescence polarization competition; 10 nM full-length beta-catenin + 10 nM 5FAM-TCF4(10-53) probe).
Description: The plate was incubated protected from light for 60 minutes at 20° C. prior to read. Reads were performed on a CLARIOstar plate reader (BMG Labtech) in duplicate, and data were fitted to a 1:1 binding model with hill slope using an in-house script. All provided concentrations are final concentrations.

Binder	EC50
B3	4470 nM
B4	20 nM
B5	30 nM
B6	143 nM
B7	5000 nM
B8	25 nM
B9	192 nM
B10	73 nM
B11	63 nM
B12	98 nM
